Laboratory results from US9714285 (dated 2017).

T1: TGFβ2 (human, UniProt P61812)
T1 chain: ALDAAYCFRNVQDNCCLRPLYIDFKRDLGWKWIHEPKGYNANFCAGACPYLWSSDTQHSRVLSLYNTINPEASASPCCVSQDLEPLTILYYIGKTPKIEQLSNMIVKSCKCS

T2: TGFβ3 (human, UniProt P10600)
T2 chain: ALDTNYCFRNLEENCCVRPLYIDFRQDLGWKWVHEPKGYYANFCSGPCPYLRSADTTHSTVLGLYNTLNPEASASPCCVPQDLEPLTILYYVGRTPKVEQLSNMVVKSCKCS

B1: XPA.42.068 (antibody, V domains shown)
VH: not shown
VL: SSELTQPPSVSVAPGEKARITCGGNNIGRKSVHWYQQRPGQAPVVVLYYDRVRPSGIPERFSGSNSGNTATLTITRVEAGDEADYFCQVWDNTSEHVVFGGGTQLTVLG
B2: XPA.42.681 (antibody, V domains shown)
VH: not shown
VL: SYVLTQPPSVSVAPGKTARITCGGNNIGFRSVHWYQQKSGQAPVLVIYFDRARPSGIPERFSASNSENTATLTIRRVEAGDEADYYCQVWDSDSDDLVFGGGTQLTVLG
B3: TGFβ-RI (protein)
chain: LQCFCHLCTKDNFTCVTDGLCFVSVTETTDKVIHNSMCIAEIDLIPRDRPFVCAPSSKTGSVTTTYCCNQDHCNKIELPTTVKSSPGLGPVEL
B4: XPA.42.089 (antibody, V domains shown)
VH: QVQLVQSGAEVKKPGSSVKVSCKASGGTFSSYAISWVRQAPGQGLEWMGGIIPIFGTANYAQKFQGRVTITADESTSTAYMELSSLRSEDTAVYYCARGLWEVRALPSVYWGQGTLVTVSS
VL: SYELTQPPSVSVAPGQTARITCGANDIGSKSVHWYQQKAGQAPVLVVSEDIIRPSGIPERISGSNSGNTATLTISRVEAGDEADYYCQVWDRDSDQYVFGTGTKVTVLG

Legend:
TGFβ2 [1] = molecular target: T1, TGFβ2; assay: competition, SPR vs TGFβ-RIII
TGFβ1 [2] = molecular target: T3, TGFβ1 (human, UniProt P01137); assay: competition, SPR vs TGFβ-RII
TGFβ2 [3] = molecular target: T1, TGFβ2; assay: competition, SPR vs TGFβ-RII
TGFβ3 [4] = molecular target: T2, TGFβ3; assay: competition, SPR vs TGFβ-RII
TGFβ3 [5] = molecular target: T2, TGFβ3; assay: competition, SPR vs TGFβ-RIII
TGFβ1 [6] = molecular target: T3, TGFβ1; assay: competition, SPR vs TGFβ-RIII
TGFβ1 [7] = molecular target: T3, TGFβ1; assay: SPR
TGFβ3 [8] = molecular target: T2, TGFβ3; assay: SPR
TGFβ2 [9] = molecular target: T1, TGFβ2; assay: SPR

Binder | EC50 (TGFβ2 [1]) | EC50 (TGFβ1 [2]) | EC50 (TGFβ2 [3]) | EC50 (TGFβ3 [4]) | EC50 (TGFβ3 [5]) | EC50 (TGFβ1 [6]) | binding result (TGFβ1 [7]) | binding result (TGFβ3 [8]) | binding result (TGFβ2 [9])
B1 | 2.4 nM | 2 nM | 2.2 nM | 1.4 nM | 1.9 nM | 0.6 nM |  |  | 
B2 | 2.1 nM | 2.3 nM | 1.7 nM | 1.2 nM | 1.1 nM | 1.2 nM |  |  | 
B3 |  |  |  |  |  |  | no binding | no binding | no binding
B4 | 1.6 nM | 1.7 nM | 1.8 nM | 34 nM | 31 nM | 1.2 nM |  |  | 
